Biological target: PTH receptor 1 on ROS 17/2.8 rat osteoblast cells (rat) (UniProt P25961)
Assay: cell-based or functional assay

Chain of UniProt P25961 (P25961 27-591): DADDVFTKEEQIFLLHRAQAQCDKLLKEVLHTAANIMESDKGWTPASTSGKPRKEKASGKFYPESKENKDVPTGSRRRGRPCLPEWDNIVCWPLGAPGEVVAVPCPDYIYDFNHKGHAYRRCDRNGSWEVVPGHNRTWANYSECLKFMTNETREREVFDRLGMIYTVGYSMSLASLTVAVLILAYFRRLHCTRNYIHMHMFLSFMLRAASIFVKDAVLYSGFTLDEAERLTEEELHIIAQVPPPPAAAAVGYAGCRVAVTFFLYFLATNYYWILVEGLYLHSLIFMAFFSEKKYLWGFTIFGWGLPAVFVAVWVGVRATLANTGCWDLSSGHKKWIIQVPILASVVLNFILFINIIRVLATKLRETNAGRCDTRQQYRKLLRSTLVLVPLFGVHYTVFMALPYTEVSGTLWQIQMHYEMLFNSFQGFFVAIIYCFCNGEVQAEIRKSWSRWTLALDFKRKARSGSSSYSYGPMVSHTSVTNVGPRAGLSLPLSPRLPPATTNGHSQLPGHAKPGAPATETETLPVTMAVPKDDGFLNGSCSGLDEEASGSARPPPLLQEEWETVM

PAIGB expression (fold induction): 6 fold
Substance: human PTH (1-34) (from UniProt P01270 32-65) (peptide)

Source: US20040146906A1
